Experimental data reported in patent publication US20100266532A1, “METHODS FOR INHIBITING SCARRING” (Renovo Limited, priority 2007, published 2010).

System: 1 cm incisional rat wounds
Test: Rat model of wound healing and scarring, escalating versus constant doses, macroscopic VAS
Format: in vivo
Description: FIG. 11 is a graph comparing the mean differences between macroscopic VAS scores of scars formed on healing of 1 cm incisional rat wounds treated with a diluent control (“placebo treated wounds”), and scars formed on healing of wounds provided with one of the following regimes: • i) TGF-β3 control treatment using 20 ng TGF-β3 per centimetre; • ii) TGF-β3 control treatment using 100 ng TGF-β3 per centimetre; or • iii) TGFβ3 treatment using escalating doses of TGF-β3 administered in sequential incidences of treatment.
In each case the wounds were subject to two incidences of treatment, the first prior to wounding and the second approximately 24 hours later.
Placebo treated control wounds were provided with two incidences of treatment, each of which consisted of administration of a diluent. These placebo treated wounds provide a baseline value for scarring, with reference to which scar inhibition produced by TGF-β3 treatments may be determined. “Control treated wounds” were provided with two incidences of treatment, each comprising injections of TGF-β3 at either 20 ng/100 μl or 100 ng/100 μl (the same concentration of TGF-β3 being injected in each incidence of treatment). The “treated wounds” were provided with an escalating dose regimen in which the first incidence of treatment comprised an injection of 20 ng/100 μl TGFβ3, while the second incidence of treatment comprised an injection of 100 ng/100 μl TGFβ3.
Each animal received two wounds, and these were arranged so that the wounds of each animal included placebo treated wounds, as well as either treated wounds (examples treated using escalating doses of TGF-β3 administered in sequential incidences of treatment), or control treated wounds (receiving control treatment with TGF-β3 at the same dose in each incidence of treatment). This permits comparison between scars formed on healing of placebo treated wounds and treated or control treated wounds within the same subject. […]
Scars were assessed, and VAS scores produced, 70 days after wounding. […]

B1: TGF-β3: well-known anti-scarring growth factor, Sequence ID No. 1; labelled "Juvista" in FIGS. 8 and 9 (protein, listed as Homo sapiens)
chain: ALDTNYCFRNLEENCCVRPLYIDFRQDLGWKWVHEPKGYYANFCSGPCPYLRSADTTHSTVLGLYNTLNPEASASPCCVPQDLEPLTILYYVGRTPKVEQLSNMVVKSCKCS
scarring compared to placebo (macroscopic VAS) (dosed twice with either 20 ng/100 μl or 100 ng/100 μl, 24 hours apart, 70 days after wounding): displayed a reduction in scarring
inhibition of scarring (macroscopic VAS) versus constant doses (escalating: 20 ng/100 μl then 100 ng/100 μl approximately 24 hours later, 70 days after wounding): much larger magnitude of effect
inhibition of scarring, macroscopic images (escalating: 20 ng/100 μl then 100 ng/100 μl approximately 24 hours later, 70 days post wounding): greatest inhibition in scarring
